± gives the uncertainty stated by the source.
B1: Homeobox protein cut-like 2, residues 895 to 963; numbered along this chain, O14529 (parent)
chain: EVDTLELTRQVKEKLAKNGICQRIFGEKVLGLSQGSVSDMLSRPKPWSKLTQKGREPFIRMQLWLSDQL

Variants of: B1
Test: abundance fitness (aPCA) (normalised: wild type 0, dead -1); higher = more abundant; growth selection in yeast, the domain comes from the species named
Settings: Homo sapiens

Variant | abundance fitness
EVDTLELTRQVKEKLAKNGITQRIFGEKVLGLSQGSVSDMLSRPKPWSKLTQKGREPFIRMQLWLSDQL [C21T] | 0.093 ± 0.04
EVDTLELTRQVKEKLAKNGIGQRIFGEKVLGLSQGSVSDMLSRPKPWSKLTQKGREPFIRMQLWLSDQL [C21G] | -0.062 ± 0.036
EVDTLELTRQVKEKLAKNGIPQRIFGEKVLGLSQGSVSDMLSRPKPWSKLTQKGREPFIRMQLWLSDQL [C21P] | 0.027 ± 0.057
EVDTLELTRQVKEKLAKNGIMQRIFGEKVLGLSQGSVSDMLSRPKPWSKLTQKGREPFIRMQLWLSDQL [C21M] | -0.045 ± 0.039
EVDTLELTRQVKEKLAKNGIFQRIFGEKVLGLSQGSVSDMLSRPKPWSKLTQKGREPFIRMQLWLSDQL [C21F] | -0.094 ± 0.15
EVDTLELTRQVKEKLAKNGIAQRIFGEKVLGLSQGSVSDMLSRPKPWSKLTQKGREPFIRMQLWLSDQL [C21A] | -0.04 ± 0.038
EVDTLELTRQVKEKLAKNGIEQRIFGEKVLGLSQGSVSDMLSRPKPWSKLTQKGREPFIRMQLWLSDQL [C21E] | -0.04 ± 0.043
EVDTLELTRQVKEKLAKNGISQRIFGEKVLGLSQGSVSDMLSRPKPWSKLTQKGREPFIRMQLWLSDQL [C21S] | 0.082 ± 0.043
EVDTLELTRQVKEKLAKNGIIQRIFGEKVLGLSQGSVSDMLSRPKPWSKLTQKGREPFIRMQLWLSDQL [C21I] | -0.115 ± 0.083
EVDTLELTRQVKEKLAKNGIRQRIFGEKVLGLSQGSVSDMLSRPKPWSKLTQKGREPFIRMQLWLSDQL [C21R] | -0.087 ± 0.031
EVDTLELTRQVKEKLAKNGIWQRIFGEKVLGLSQGSVSDMLSRPKPWSKLTQKGREPFIRMQLWLSDQL [C21W] | -0.104 ± 0.035
EVDTLELTRQVKEKLAKNGIYQRIFGEKVLGLSQGSVSDMLSRPKPWSKLTQKGREPFIRMQLWLSDQL [C21Y] | -0.41 ± 0.097
EVDTLELTRQVKEKLAKNGIKQRIFGEKVLGLSQGSVSDMLSRPKPWSKLTQKGREPFIRMQLWLSDQL [C21K] | -0.034 ± 0.039
EVDTLELTRQVKEKLAKNGIVQRIFGEKVLGLSQGSVSDMLSRPKPWSKLTQKGREPFIRMQLWLSDQL [C21V] | -0.174 ± 0.041
EVDTLELTRQVKEKLAKNGIHQRIFGEKVLGLSQGSVSDMLSRPKPWSKLTQKGREPFIRMQLWLSDQL [C21H] | -0.029 ± 0.081
EVDTLELTRQVKEKLAKNGIDQRIFGEKVLGLSQGSVSDMLSRPKPWSKLTQKGREPFIRMQLWLSDQL [C21D] | -0.103 ± 0.099
EVDTLELTRQVKEKLAKNGINQRIFGEKVLGLSQGSVSDMLSRPKPWSKLTQKGREPFIRMQLWLSDQL [C21N] | 0.015 ± 0.088
EVDTLELTRQVKEKLAKNGPCQRIFGEKVLGLSQGSVSDMLSRPKPWSKLTQKGREPFIRMQLWLSDQL [I20P] | -0.226 ± 0.042
EVDTLELTRQVKEKLAKNGECQRIFGEKVLGLSQGSVSDMLSRPKPWSKLTQKGREPFIRMQLWLSDQL [I20E] | -0.575 ± 0.061
EVDTLELTRQVKEKLAKNGACQRIFGEKVLGLSQGSVSDMLSRPKPWSKLTQKGREPFIRMQLWLSDQL [I20A] | -0.535 ± 0.052

Variant | abundance fitness
EVDTLELTRQVKEKLAKNGKCQRIFGEKVLGLSQGSVSDMLSRPKPWSKLTQKGREPFIRMQLWLSDQL [I20K] | -0.32 ± 0.051
EVDTLELTRQVKEKLAKNGSCQRIFGEKVLGLSQGSVSDMLSRPKPWSKLTQKGREPFIRMQLWLSDQL [I20S] | -0.342 ± 0.038
EVDTLELTRQVKEKLAKNGMCQRIFGEKVLGLSQGSVSDMLSRPKPWSKLTQKGREPFIRMQLWLSDQL [I20M] | -0.023 ± 0.037
EVDTLELTRQVKEKLAKNGCCQRIFGEKVLGLSQGSVSDMLSRPKPWSKLTQKGREPFIRMQLWLSDQL [I20C] | -0.269 ± 0.065
EVDTLELTRQVKEKLAKNGVCQRIFGEKVLGLSQGSVSDMLSRPKPWSKLTQKGREPFIRMQLWLSDQL [I20V] | -0.201 ± 0.036
EVDTLELTRQVKEKLAKNGHCQRIFGEKVLGLSQGSVSDMLSRPKPWSKLTQKGREPFIRMQLWLSDQL [I20H] | -0.382 ± 0.052
EVDTLELTRQVKEKLAKNGQCQRIFGEKVLGLSQGSVSDMLSRPKPWSKLTQKGREPFIRMQLWLSDQL [I20Q] | -0.202 ± 0.046
EVDTLELTRQVKEKLAKNGYCQRIFGEKVLGLSQGSVSDMLSRPKPWSKLTQKGREPFIRMQLWLSDQL [I20Y] | -0.179 ± 0.049
EVDTLELTRQVKEKLAKNGFCQRIFGEKVLGLSQGSVSDMLSRPKPWSKLTQKGREPFIRMQLWLSDQL [I20F] | -0.058 ± 0.04
EVDTLELTRQVKEKLAKNGRCQRIFGEKVLGLSQGSVSDMLSRPKPWSKLTQKGREPFIRMQLWLSDQL [I20R] | -0.409 ± 0.051
EVDTLELTRQVKEKLAKNGDCQRIFGEKVLGLSQGSVSDMLSRPKPWSKLTQKGREPFIRMQLWLSDQL [I20D] | -0.415 ± 0.067
EVDTLELTRQVKEKLAKNGGCQRIFGEKVLGLSQGSVSDMLSRPKPWSKLTQKGREPFIRMQLWLSDQL [I20G] | -0.412 ± 0.057
EVDTLELTRQVKEKLAKNGNCQRIFGEKVLGLSQGSVSDMLSRPKPWSKLTQKGREPFIRMQLWLSDQL [I20N] | -0.453 ± 0.077
EVDTLELTRQVKEKLAKNGWCQRIFGEKVLGLSQGSVSDMLSRPKPWSKLTQKGREPFIRMQLWLSDQL [I20W] | -0.11 ± 0.077
EVDTLELTRQVKEKLAKNGICHRIFGEKVLGLSQGSVSDMLSRPKPWSKLTQKGREPFIRMQLWLSDQL [Q22H] | -0.239 ± 0.12
EVDTLELTRQVKEKLAKNGICVRIFGEKVLGLSQGSVSDMLSRPKPWSKLTQKGREPFIRMQLWLSDQL [Q22V] | -0.116 ± 0.041
EVDTLELTRQVKEKLAKNGICKRIFGEKVLGLSQGSVSDMLSRPKPWSKLTQKGREPFIRMQLWLSDQL [Q22K] | -0.095 ± 0.064
EVDTLELTRQVKEKLAKNGICARIFGEKVLGLSQGSVSDMLSRPKPWSKLTQKGREPFIRMQLWLSDQL [Q22A] | -0.098 ± 0.05
EVDTLELTRQVKEKLAKNGICMRIFGEKVLGLSQGSVSDMLSRPKPWSKLTQKGREPFIRMQLWLSDQL [Q22M] | -0.071 ± 0.046
